Target: T1, GST-PIL15 (Oryza sativa (rice), UniProt Q0JNI9 1-637)
T1 sequence: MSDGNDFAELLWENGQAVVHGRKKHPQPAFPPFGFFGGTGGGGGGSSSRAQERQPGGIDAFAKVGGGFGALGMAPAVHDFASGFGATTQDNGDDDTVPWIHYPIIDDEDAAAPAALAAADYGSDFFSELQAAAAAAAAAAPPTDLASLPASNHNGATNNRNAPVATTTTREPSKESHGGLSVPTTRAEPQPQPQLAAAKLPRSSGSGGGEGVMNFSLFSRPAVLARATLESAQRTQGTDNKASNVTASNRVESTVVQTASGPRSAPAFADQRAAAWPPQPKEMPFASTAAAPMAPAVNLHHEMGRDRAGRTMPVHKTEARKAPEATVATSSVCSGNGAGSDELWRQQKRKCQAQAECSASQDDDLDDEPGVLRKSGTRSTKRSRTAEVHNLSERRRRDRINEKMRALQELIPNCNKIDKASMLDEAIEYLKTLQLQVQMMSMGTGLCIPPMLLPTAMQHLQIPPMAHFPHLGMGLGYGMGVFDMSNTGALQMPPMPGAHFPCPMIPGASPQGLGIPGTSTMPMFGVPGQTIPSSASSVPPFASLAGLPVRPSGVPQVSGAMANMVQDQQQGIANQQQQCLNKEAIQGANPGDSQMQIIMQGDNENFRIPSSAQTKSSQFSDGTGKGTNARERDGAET
Experiment: EMSA

B1: PIL15 EMSA probe (AMT1;2 promoter PBE-box) (dsDNA)
DNA 1: AGGATTTCATGTGTTTTGGT
DNA 2: ACCAAAACACATGAAATCCT
B1: binds.
